The values that follow come from patent US20240197877A1, “BINDING PROTEINS RECOGNIZING HA-2 ANTIGEN AND USES […]” (published 2024).

Assay [1] addresses MYO3A/MYO3B peptide (…) on peptide-pulsed T2 cells, HLA-A*02:01 (human). The assay can be described thus: cell-based or functional assay.
Assay [2] has as its target MALT1 peptide (…) on peptide-pulsed T2 cells, HLA-A*02:01 (human). The assay can be described thus: cell-based or functional assay.

B1: HA2-MJ14-DP317 MGTM Sequence (also known as “TCR-101” and “MJ14-DP317”) (TCR, V domains shown)
V domain 1: QTVTQSQPEMSVQEAETVTLSCTYDTSESDYYLFWYKQPPSRQMILVIRQEAYKQQNATENRFSVNFQKAAKSFSLKISDSQLGDAAMYFCAYRSERYSTLTFGKGTMLLVSP
V domain 2: SQTIHQWPATLVQPVGSPLSLECTVEGTSNPNLYWYRQAAGRGLQLLFYSVGIGQISSEVPQNLSASRPQDRQFILSSKKLLLSDSGFYLCAWSVPYLAGGKRPDTQYFGPGTRLTVLE
Turning to B1, the “EC50 of cytotoxicity (AUC of growth of peptide-pulsed T2 cells over 72 h against peptide dose)” value in assay [1] and in assay [2] was 100 fold lower affinity than the target HA-2 peptide throughout.
